Results on four molecules are retold here after US20140087995A1 (published 2014).

A word on the IC50: it is the concentration at which inhibition is half-maximal.

First the molecules themselves.
T1: human calcitonin receptor (human, UniProt P30988 25-474)
T1 construct: whole, on cells; Membranes of stably transfected cells; also called hCTR; hCT
T1 sequence (looked up): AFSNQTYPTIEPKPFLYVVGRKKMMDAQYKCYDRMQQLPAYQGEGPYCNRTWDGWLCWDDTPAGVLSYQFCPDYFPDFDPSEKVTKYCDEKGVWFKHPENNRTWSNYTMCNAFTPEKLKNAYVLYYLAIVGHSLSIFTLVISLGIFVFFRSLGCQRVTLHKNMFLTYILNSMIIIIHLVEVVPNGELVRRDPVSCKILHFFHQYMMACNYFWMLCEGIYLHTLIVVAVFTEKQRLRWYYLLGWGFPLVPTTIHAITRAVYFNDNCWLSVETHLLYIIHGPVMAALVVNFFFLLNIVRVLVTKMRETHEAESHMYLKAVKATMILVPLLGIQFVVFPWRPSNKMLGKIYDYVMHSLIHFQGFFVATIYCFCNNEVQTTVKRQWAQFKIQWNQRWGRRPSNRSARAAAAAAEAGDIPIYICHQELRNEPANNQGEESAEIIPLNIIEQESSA

T2: rat calcitonin receptor (rat, UniProt P32214 25-516)
T2 construct: whole, on cells; Membranes of transiently transfected BHK tk'ts 13 cells; also called rCTR; rat calcitonin (a) receptor
T2 sequence (looked up): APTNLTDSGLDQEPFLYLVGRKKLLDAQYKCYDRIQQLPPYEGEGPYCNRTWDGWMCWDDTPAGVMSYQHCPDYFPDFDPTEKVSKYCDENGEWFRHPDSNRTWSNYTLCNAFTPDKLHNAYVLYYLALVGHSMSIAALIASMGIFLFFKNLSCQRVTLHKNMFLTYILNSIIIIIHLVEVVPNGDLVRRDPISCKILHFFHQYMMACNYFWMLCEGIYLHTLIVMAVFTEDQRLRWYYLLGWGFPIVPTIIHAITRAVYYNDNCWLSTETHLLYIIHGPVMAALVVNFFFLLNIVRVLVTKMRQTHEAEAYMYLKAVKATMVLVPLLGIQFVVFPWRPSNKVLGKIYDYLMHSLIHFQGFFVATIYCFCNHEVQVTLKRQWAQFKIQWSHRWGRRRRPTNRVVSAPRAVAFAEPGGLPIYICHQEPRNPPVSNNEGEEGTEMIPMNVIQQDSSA

T3: rat amylin receptor (rat calcitonin receptor + rat RAMP 3) (rat, UniProt P32214 25-516; Q9JJ73 23-147)
T3 construct: whole, on cells; Membranes of transiently transfected BHK tk'ts 13 cells; also called rAmylin-R; rat amylin 3(a) receptor
T3 sequence (looked up) 1: T2 sequence (looked up)
T3 sequence (looked up) 2: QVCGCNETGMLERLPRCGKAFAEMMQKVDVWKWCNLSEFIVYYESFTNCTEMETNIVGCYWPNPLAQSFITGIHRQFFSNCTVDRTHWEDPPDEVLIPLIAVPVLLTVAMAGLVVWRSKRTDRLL

B1: N^ε1-[2-[2-[2-[[2-[2-[2-[[(4S)-4-carboxy-4-(19-carboxynonadecanoylamino)butanoyl]amino]ethoxy]ethoxy]acetyl]amino]ethoxy]ethoxy]acetyl]-[Arg17,Pro21,Pro27,Arg34 … (peptide)
peptide: K([AEEA-AEEA-γGlu-C20 diacid])CNTATCATQRLANFLRHSSPNFGAIPSSTNVGRNTY-NH2
modifications: disulfide 2-7; N-terminus assumed
SMILES: CC[C@H](C)[C@H](NC(=O)[C@H](C)NC(=O)CNC(=O)[C@H](Cc1ccccc1)NC(=O)[C@H](CC(N)=O)NC(=O)[C@@H]1CCCN1C(=O)[C@H](CO)NC(=O)[C@H](CO)NC(=O)[C@H](Cc1c[nH]cn1)NC(=O)[C@H](CCCNC(=N)N)NC(=O)[C@H](CC(C)C)NC(=O)[C@H](Cc1ccccc1)NC(=O)[C@H](CC(N)=O)NC(=O)[C@H](C)NC(=O)[C@H](CC(C)C)NC(=O)[C@H](CCCNC(=N)N)NC(=O)[C@H](CCC(N)=O)NC(=O)[C@@H](NC(=O)[C@H](C)NC(=O)[C@@H]1CSSC[C@H](NC(=O)[C@@H](N)CCCCNC(=O)COCCOCCNC(=O)COCCOCCNC(=O)CC[C@H](NC(=O)CCCCCCCCCCCCCCCCCCC(=O)O)C(=O)O)C(=O)N[C@@H](CC(N)=O)C(=O)N[C@@H]([C@@H](C)O)C(=O)N[C@@H](C)C(=O)N[C@@H]([C@@H](C)O)C(=O)N1)[C@@H](C)O)C(=O)N1CCC[C@H]1C(=O)N[C@@H](CO)C(=O)N[C@@H](CO)C(=O)N[C@H](C(=O)N[C@@H](CC(N)=O)C(=O)N[C@H](C(=O)NCC(=O)N[C@@H](CCCNC(=N)N)C(=O)N[C@@H](CC(N)=O)C(=O)N[C@H](C(=O)N[C@@H](Cc1ccc(O)cc1)C(N)=O)[C@@H](C)O)C(C)C)[C@@H](C)O
notes: Synthetic acylated analogue of human amylin; also called compound 95
B2: N^ε1-[2-[2-[2-[[2-[2-[2-[[(4S)-4-carboxy-4-(19-carboxynonadecanoylamino)butanoyl]amino]ethoxy]ethoxy]acetyl]amino]ethoxy]ethoxy]acetyl]-[Arg17,Pro21,Pro27,Pro31 … (peptide)
peptide: K([AEEA-AEEA-γGlu-C20 diacid])CNTATCATQRLANFLRHSSPNFGAIPSSTPVGSNTY-NH2
modifications: disulfide 2-7; N-terminus assumed
SMILES: CC[C@H](C)[C@H](NC(=O)[C@H](C)NC(=O)CNC(=O)[C@H](Cc1ccccc1)NC(=O)[C@H](CC(N)=O)NC(=O)[C@@H]1CCCN1C(=O)[C@H](CO)NC(=O)[C@H](CO)NC(=O)[C@H](Cc1c[nH]cn1)NC(=O)[C@H](CCCNC(=N)N)NC(=O)[C@H](CC(C)C)NC(=O)[C@H](Cc1ccccc1)NC(=O)[C@H](CC(N)=O)NC(=O)[C@H](C)NC(=O)[C@H](CC(C)C)NC(=O)[C@H](CCCNC(=N)N)NC(=O)[C@H](CCC(N)=O)NC(=O)[C@@H](NC(=O)[C@H](C)NC(=O)[C@@H]1CSSC[C@H](NC(=O)[C@@H](N)CCCCNC(=O)COCCOCCNC(=O)COCCOCCNC(=O)CC[C@H](NC(=O)CCCCCCCCCCCCCCCCCCC(=O)O)C(=O)O)C(=O)N[C@@H](CC(N)=O)C(=O)N[C@@H]([C@@H](C)O)C(=O)N[C@@H](C)C(=O)N[C@@H]([C@@H](C)O)C(=O)N1)[C@@H](C)O)C(=O)N1CCC[C@H]1C(=O)N[C@@H](CO)C(=O)N[C@@H](CO)C(=O)N[C@H](C(=O)N1CCC[C@H]1C(=O)N[C@H](C(=O)NCC(=O)N[C@@H](CO)C(=O)N[C@@H](CC(N)=O)C(=O)N[C@H](C(=O)N[C@@H](Cc1ccc(O)cc1)C(N)=O)[C@@H](C)O)C(C)C)[C@@H](C)O
notes: Synthetic acylated analogue of human amylin; also called compound 96
B3: N^ε1-[2-[2-[2-[[2-[2-[2-[[(4S)-4-carboxy-4-(19-carboxynonadecanoylamino)butanoyl]amino]ethoxy]ethoxy]acetyl]amino]ethoxy]ethoxy]acetyl]-[Arg17,Pro21,Pro27,Pro34 … (peptide)
peptide: K([AEEA-AEEA-γGlu-C20 diacid])CNTATCATQRLANFLRHSSPNFGAIPSSTNVGPNTY-NH2
modifications: disulfide 2-7; N-terminus assumed
SMILES: CC[C@H](C)[C@H](NC(=O)[C@H](C)NC(=O)CNC(=O)[C@H](Cc1ccccc1)NC(=O)[C@H](CC(N)=O)NC(=O)[C@@H]1CCCN1C(=O)[C@H](CO)NC(=O)[C@H](CO)NC(=O)[C@H](Cc1c[nH]cn1)NC(=O)[C@H](CCCNC(=N)N)NC(=O)[C@H](CC(C)C)NC(=O)[C@H](Cc1ccccc1)NC(=O)[C@H](CC(N)=O)NC(=O)[C@H](C)NC(=O)[C@H](CC(C)C)NC(=O)[C@H](CCCNC(=N)N)NC(=O)[C@H](CCC(N)=O)NC(=O)[C@@H](NC(=O)[C@H](C)NC(=O)[C@@H]1CSSC[C@H](NC(=O)[C@@H](N)CCCCNC(=O)COCCOCCNC(=O)COCCOCCNC(=O)CC[C@H](NC(=O)CCCCCCCCCCCCCCCCCCC(=O)O)C(=O)O)C(=O)N[C@@H](CC(N)=O)C(=O)N[C@@H]([C@@H](C)O)C(=O)N[C@@H](C)C(=O)N[C@@H]([C@@H](C)O)C(=O)N1)[C@@H](C)O)C(=O)N1CCC[C@H]1C(=O)N[C@@H](CO)C(=O)N[C@@H](CO)C(=O)N[C@H](C(=O)N[C@@H](CC(N)=O)C(=O)N[C@H](C(=O)NCC(=O)N1CCC[C@H]1C(=O)N[C@@H](CC(N)=O)C(=O)N[C@H](C(=O)N[C@@H](Cc1ccc(O)cc1)C(N)=O)[C@@H](C)O)C(C)C)[C@@H](C)O
notes: Synthetic acylated analogue of human amylin; also called compound 98
B4: N^ε1-[2-[2-[2-[[2-[2-[2-[[(4S)-4-carboxy-4-(19-carboxynonadecanoylamino)butanoyl]amino]ethoxy]ethoxy]acetyl]amino]ethoxy]ethoxy]acetyl]-[Arg17,Pro21,Pro27,His34 … (peptide)
peptide: K([AEEA-AEEA-γGlu-C20 diacid])CNTATCATQRLANFLRHSSPNFGAIPSSTNVGHNTY-NH2
modifications: disulfide 2-7; N-terminus assumed
SMILES: CC[C@H](C)[C@H](NC(=O)[C@H](C)NC(=O)CNC(=O)[C@H](Cc1ccccc1)NC(=O)[C@H](CC(N)=O)NC(=O)[C@@H]1CCCN1C(=O)[C@H](CO)NC(=O)[C@H](CO)NC(=O)[C@H](Cc1c[nH]cn1)NC(=O)[C@H](CCCNC(=N)N)NC(=O)[C@H](CC(C)C)NC(=O)[C@H](Cc1ccccc1)NC(=O)[C@H](CC(N)=O)NC(=O)[C@H](C)NC(=O)[C@H](CC(C)C)NC(=O)[C@H](CCCNC(=N)N)NC(=O)[C@H](CCC(N)=O)NC(=O)[C@@H](NC(=O)[C@H](C)NC(=O)[C@@H]1CSSC[C@H](NC(=O)[C@@H](N)CCCCNC(=O)COCCOCCNC(=O)COCCOCCNC(=O)CC[C@H](NC(=O)CCCCCCCCCCCCCCCCCCC(=O)O)C(=O)O)C(=O)N[C@@H](CC(N)=O)C(=O)N[C@@H]([C@@H](C)O)C(=O)N[C@@H](C)C(=O)N[C@@H]([C@@H](C)O)C(=O)N1)[C@@H](C)O)C(=O)N1CCC[C@H]1C(=O)N[C@@H](CO)C(=O)N[C@@H](CO)C(=O)N[C@H](C(=O)N[C@@H](CC(N)=O)C(=O)N[C@H](C(=O)NCC(=O)N[C@@H](Cc1c[nH]cn1)C(=O)N[C@@H](CC(N)=O)C(=O)N[C@H](C(=O)N[C@@H](Cc1ccc(O)cc1)C(N)=O)[C@@H](C)O)C(C)C)[C@@H](C)O
notes: Synthetic acylated analogue of human amylin; also called compound 97

Numbered stars: 1 amine (or outer) side, 2 acyl side, 3 side chain; on linkers, the order of the positions; unused ones are H or OH. Bridge positions count the residues as written; N and C are the ends. Side chains are listed from the residue outwards. Ends that are not written are not given here. * marks the point of attachment. C20 diacid = O=C(O)CCCCCCCCCCCCCCCCCCC(=O)*; γGlu = O=C(O)[C@H](CCC(=O)[*:2])N[*:1]; AEEA = NCCOCCOCC(=O)O

The first experiment has as its target T1, human calcitonin receptor. Description: ratio of IC50 on human calcitonin receptor to IC50 on human amylin receptor (reference m42), SPA competition. On the procedure: The resulting pellet was resuspended, homogenized and centrifuged (20.000 rpm, 15 min) in a buffer containing 20 mM Na-HEPES and 0.1 mM EDTA (pH 7.4, buffer 2). The resulting pellet was resuspended in buffer 2 and protein concentration was measured (BCA protein Assay, Pierce). The homogenate was kept cold during the whole procedure. The membranes were kept at −80° C. until use. The assay was performed in a 384 well Optiplate (PerkinElmer) in a total volume of 40 ul. Membranes were mixed with SPA beads. Final concentration of membranes 35 ng/μL final and SPA beads was 0.05 mg/well. Test-compounds were dissolved in DMSO and further diluted in assay buffer (50 mM Hepes, pH 7.4, 1 mM CaCl2, 5 mM MgCl₂, 0.1% OA and 0.02% Tween20). […] The final mixture was incubated with shaking at 400 rpm for 120 min at 25° C. prior to centrifugation (1500 rpm, 10 min). Samples were analyzed on TopCounter™ (Packard). The IC₅₀ was calculated using (one site binding competition analysis) GraphPad Prism5 as a measure of receptor affinity.
Membranes were prepared in the following way; the cells were rinsed with PBS and incubated with Versene for approximately 5 min before harvesting. The cells were flushed with PBS and the cell-suspension was centrifuged for 5 min at 1000 rpm. Cells were homogenized (Ultrathurrax) in a buffer containing 20 mM Na-HEPES and 10 mM EDTA (pH 7.4) and centrifuged at 20.000 rpm for 15 min. The resulting pellet was resuspended, homogenized and centrifuged (20.000 rpm, 15 min) in a buffer containing 20 mM Na-HEPES and 0.1 mM EDTA (pH 7.4, buffer 2). The resulting pellet was resuspended in buffer 2 and protein concentration was measured (BCA protein Assay, Pierce). The homogenate was kept cold during the whole procedure. The membranes were kept at −80° C. until use. Assay was performed in a 384 well Optiplate (PerkinElmer) in a total volume of 40 ul. Membranes were mixed with SPA beads.
In the case of B1, the “Ratio hCT/hAmylin binding” value turned out to be 63.4.

Take B2: the “Ratio hCT/hAmylin binding” value is 79.6.

As to B3, the “Ratio hCT/hAmylin binding” value is 74.1.

Consider B4, for which the “Ratio hCT/hAmylin binding” value came out at 104.

A further experiment addresses T2, rat calcitonin receptor. The experiment in a line: ratio of IC50 on rat calcitonin receptor to IC50 on rat amylin receptor (reference m40).
B1: the “Ratio rCT/rAmylin binding” value came out at 71.3.

Take B2: the “Ratio rCT/rAmylin binding” value came out at 118.

B3: the “Ratio rCT/rAmylin binding” value was determined as 176.

B4: the “Ratio rCT/rAmylin binding” value came to 71.1.

The target in a further experiment is T2, rat calcitonin receptor. The experiment in a line: SPA competition with 125I-calcitonin on membranes of BHK tk'ts 13 cells with rat calcitonin receptor (Assay VIII).
Turning to B1, the 50% inhibitory concentration (IC50) turned out to be 388 nM.

Take B2: the half-inhibitory concentration (IC50) came to 62.2 nM.

Take B3: the IC50 turned out to be 24.1 nM.

For the molecule B4, the IC50 came out at 159 nM.

Another experiment deals with T3, rat amylin receptor (rat calcitonin …). The experiment in a line: SPA competition with 125I-rat amylin on membranes of BHK tk'ts 13 cells with rat calcitonin receptor + rat RAMP3 (Assay VI).
On to B1, for which the IC50 stood at 5.45 nM.

For B2, the IC50 came to 0.529 nM.

Take B3: the IC50 was 0.137 nM.

In the case of B4, the IC50 was found to be 2.24 nM.
